Laboratory results: patent US20180016327A1 (Chugai, published 2018)
Changes are numbered by the printed parent chain.

B1: CFP0018 18L 96M (antibody, V domains shown)
VH: QVQLVQSGAEVKKPGSSVKVSCKASGGTFSSYAISWVRQAPGQGLEWMGGIIPIFGTANYAQKFQGRVTITADESTSTAYMELSSLRSEDTAVYYCARQLYGYYELDIWGQGTLVTVSS
VL: DIQMTQSPSSLSASVGDRVTITCRASQSISDDLAWYQQKPGKAPKLLIYEASSLQSGVPSRFSGSGSGTDFTLTISSLQPEDFATYYCQQYNSYPMTFGQGTKVEIK
B2: CFP0018 18L 96P (antibody, V domains shown)
VH: B1 VH
VL: B1 VL with M96P
B3: CFP0018 18L 96V (antibody, V domains shown)
VH: B1 VH
VL: B1 VL with M96V
B4: CFP0018 18L 96W (antibody, V domains shown)
VH: B1 VH
VL: B1 VL with M96W
B5: CFP0018 18L 96Y (antibody, V domains shown)
VH: B1 VH
VL: B1 VL with M96Y
B6: CFP0015 (antibody, V domains shown)
VH: QVQLLESGGGLVQPGGSLRLSCAASGFTFSSYAMSWVRQAPGKGLEWVSAISGSGGSTYYADSVKGRFTISRDNSKNTLYLQMNSLRAEDTAVYYCARGDQIWYDQWYYFDMWGQGTLVTVSS
VL: B1 VL with S30E, S53N, N92D, Y94S, M96L
notes: IgG format
B7: CFP0015 15L 30A (antibody, V domains shown)
VH: B6 VH
VL: B1 VL with S30A, S53N, N92D, Y94S, M96L
B8: CFP0015 15L 30D (antibody, V domains shown)
VH: B6 VH
VL: B1 VL with S30D, S53N, N92D, Y94S, M96L
B9: CFP0015 15L 30F (antibody, V domains shown)
VH: B6 VH
VL: B1 VL with S30F, S53N, N92D, Y94S, M96L
B10: CFP0015 15L 30H (antibody, V domains shown)
VH: B6 VH
VL: B1 VL with S30H, S53N, N92D, Y94S, M96L
B11: CFP0015 15L 30N (antibody, V domains shown)
VH: B6 VH
VL: B1 VL with S30N, S53N, N92D, Y94S, M96L
B12: CFP0015 15L 30P (antibody, V domains shown)
VH: B6 VH
VL: B1 VL with S30P, S53N, N92D, Y94S, M96L
B13: CFP0015 15L 30Q (antibody, V domains shown)
VH: B6 VH
VL: B1 VL with S30Q, S53N, N92D, Y94S, M96L
B14: CFP0015 15L 30S (antibody, V domains shown)
VH: B6 VH
VL: B1 VL with S53N, N92D, Y94S, M96L
B15: CFP0015 15L 30T (antibody, V domains shown)
VH: B6 VH
VL: B1 VL with S30T, S53N, N92D, Y94S, M96L
B16: CFP0015 15L 30Y (antibody, V domains shown)
VH: B6 VH
VL: B1 VL with S30Y, S53N, N92D, Y94S, M96L
B17: CFP0015 15L 31A (antibody, V domains shown)
VH: B6 VH
VL: B1 VL with S30E, D31A, S53N, N92D, Y94S, M96L
B18: CFP0015 15L 31E (antibody, V domains shown)
VH: B6 VH
VL: B1 VL with S30E, D31E, S53N, N92D, Y94S, M96L
B19: CFP0015 15L 31H (antibody, V domains shown)
VH: B6 VH
VL: B1 VL with S30E, D31H, S53N, N92D, Y94S, M96L
B20: CFP0015 15L 31N (antibody, V domains shown)
VH: B6 VH
VL: B1 VL with S30E, D31N, S53N, N92D, Y94S, M96L
B21: CFP0015 15L 31Q (antibody, V domains shown)
VH: B6 VH
VL: B1 VL with S30E, D31Q, S53N, N92D, Y94S, M96L
B22: CFP0015 15L 31S (antibody, V domains shown)
VH: B6 VH
VL: B1 VL with S30E, D31S, S53N, N92D, Y94S, M96L
B23: CFP0015 15L 31T (antibody, V domains shown)
VH: B6 VH
VL: B1 VL with S30E, D31T, S53N, N92D, Y94S, M96L
B24: CFP0015 15L 31Y (antibody, V domains shown)
VH: B6 VH
VL: B1 VL with S30E, D31Y, S53N, N92D, Y94S, M96L
B25: CFP0015 15L 32E (antibody, V domains shown)
VH: B6 VH
VL: B1 VL with S30E, D32E, S53N, N92D, Y94S, M96L
B26: CFP0015 15L 32H (antibody, V domains shown)
VH: B6 VH
VL: B1 VL with S30E, D32H, S53N, N92D, Y94S, M96L
B27: CFP0015 15L 32N (antibody, V domains shown)
VH: B6 VH
VL: B1 VL with S30E, D32N, S53N, N92D, Y94S, M96L
B28: CFP0015 15L 32Q (antibody, V domains shown)
VH: B6 VH
VL: B1 VL with S30E, D32Q, S53N, N92D, Y94S, M96L
B29: CFP0015 15L 32S (antibody, V domains shown)
VH: B6 VH
VL: B1 VL with S30E, D32S, S53N, N92D, Y94S, M96L
B30: CFP0015 15L 32T (antibody, V domains shown)
VH: B6 VH
VL: B1 VL with S30E, D32T, S53N, N92D, Y94S, M96L
B31: CFP0015 15L 32Y (antibody, V domains shown)
VH: B6 VH
VL: B1 VL with S30E, D32Y, S53N, N92D, Y94S, M96L
B32: CFP0015 15L 34N (antibody, V domains shown)
VH: B6 VH
VL: B1 VL with S30E, A34N, S53N, N92D, Y94S, M96L
B33: CFP0015 15L 50A (antibody, V domains shown)
VH: B6 VH
VL: B1 VL with S30E, E50A, S53N, N92D, Y94S, M96L
B34: CFP0015 15L 50D (antibody, V domains shown)
VH: B6 VH
VL: B1 VL with S30E, E50D, S53N, N92D, Y94S, M96L
B35: CFP0015 15L 50H (antibody, V domains shown)
VH: B6 VH
VL: B1 VL with S30E, E50H, S53N, N92D, Y94S, M96L
B36: CFP0015 15L 50Q (antibody, V domains shown)
VH: B6 VH
VL: B1 VL with S30E, E50Q, S53N, N92D, Y94S, M96L
B37: CFP0015 15L 50S (antibody, V domains shown)
VH: B6 VH
VL: B1 VL with S30E, E50S, S53N, N92D, Y94S, M96L
B38: CFP0015 15L 50T (antibody, V domains shown)
VH: B6 VH
VL: B1 VL with S30E, E50T, S53N, N92D, Y94S, M96L
B39: CFP0015 15L 50Y (antibody, V domains shown)
VH: B6 VH
VL: B1 VL with S30E, E50Y, S53N, N92D, Y94S, M96L
B40: CFP0015 15L 53H (antibody, V domains shown)
VH: B6 VH
VL: B1 VL with S30E, S53H, N92D, Y94S, M96L
B41: CFP0015 15L 53S (antibody, V domains shown)
VH: B6 VH
VL: B1 VL with S30E, N92D, Y94S, M96L
B42: CFP0015 15L 53T (antibody, V domains shown)
VH: B6 VH
VL: B1 VL with S30E, S53T, N92D, Y94S, M96L
B43: CFP0015 15L 91D (antibody, V domains shown)
VH: B6 VH
VL: B1 VL with S30E, S53N, Y91D, N92D, Y94S, M96L
B44: CFP0015 15L 91E (antibody, V domains shown)
VH: B6 VH
VL: B1 VL with S30E, S53N, Y91E, N92D, Y94S, M96L
B45: CFP0015 15L 91H (antibody, V domains shown)
VH: B6 VH
VL: B1 VL with S30E, S53N, Y91H, N92D, Y94S, M96L

These binders were tested against T1, human C5 (human, UniProt P01031 19-673; P01031 678-1676, Beta and alpha chains are disulfide-linked and the protein is glycosylated.) (assay: Biacore, captured antibody, pH 7.4, 37 C;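 also: biacore binding response of anti-C5 antibody light chain variants captured on chip with human C5 injected, ACES running buffer containing 1.2 mM CaCl₂, parent light chain antibody set to 100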).
T1 construct: Either in-house recombinant C5 or plasma derived C5 (CALBIOCHEM) was used; also called recombinant human C5; plasma derived human C5

Binder | % binding (parent = 100) [%]
B1 | 46.2
B2 | 18
B3 | 70.3
B4 | 16.9
B5 | 23
B6 | 100
B7 | 25.7
B8 | 59.9
B9 | 39.7
B10 | 18.4
B11 | 21.4
B12 | 60.9
B13 | 42.6
B14 | 23.1
B15 | 25.1
B16 | 51.3
B17 | 30
B18 | 22.4
B19 | 59.4
B20 | 42.2
B21 | 25.8
B22 | 36.5
B23 | 15.8

Binder | % binding (parent = 100) [%]
B24 | 102
B25 | 87.3
B26 | 0.8
B27 | 10.9
B28 | 328
B29 | 167
B30 | 78.1
B31 | 15.1
B32 | 100
B33 | 44.2
B34 | 131
B35 | 8.8
B36 | 51.8
B37 | 44.2
B38 | 26.9
B39 | 46.9
B40 | 80.8
B41 | 73.6
B42 | 75.8
B43 | 20.4
B44 | 30.1
B45 | 81.5
